The values below are quoted from earlier work in US20230355537A1, “PROMOTING TRAINED IMMUNITY WITH THERAPEUTIC NANOBIOLOGIC COMPOSITIONS” (Icahn School of Medicine at Mount Sinai, priority 2017, published 2023).

One series addresses T1, PD-1 (Homo sapiens, UniProt Q15116).
T1 construct: A phase II clinical trial in subjects with diffuse large B-cell lymphoma (DLBCL); host or cells: human trial subjects (endogenous PD-1 on their immune cells)

The target in the next series is T2, PD-L1 (Homo sapiens, UniProt Q9NZQ7).
T2 construct: in subjects with advanced-stage NSCLC, melanoma, RCC, or ovarian cancer; host or cells: human trial subjects (endogenous PD-L1 on tumour and immune cells)
T2 sequence (Q9NZQ7 19-290): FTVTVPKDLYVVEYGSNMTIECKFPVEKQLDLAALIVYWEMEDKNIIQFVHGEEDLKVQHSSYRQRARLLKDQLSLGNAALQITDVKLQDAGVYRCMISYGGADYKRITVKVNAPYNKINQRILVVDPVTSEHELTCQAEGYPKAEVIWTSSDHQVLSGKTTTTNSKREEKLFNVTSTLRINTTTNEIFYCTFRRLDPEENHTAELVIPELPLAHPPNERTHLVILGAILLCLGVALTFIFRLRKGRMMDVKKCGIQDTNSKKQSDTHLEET
To be noted: in vivo.

T1 sequence (Q15116 25-288): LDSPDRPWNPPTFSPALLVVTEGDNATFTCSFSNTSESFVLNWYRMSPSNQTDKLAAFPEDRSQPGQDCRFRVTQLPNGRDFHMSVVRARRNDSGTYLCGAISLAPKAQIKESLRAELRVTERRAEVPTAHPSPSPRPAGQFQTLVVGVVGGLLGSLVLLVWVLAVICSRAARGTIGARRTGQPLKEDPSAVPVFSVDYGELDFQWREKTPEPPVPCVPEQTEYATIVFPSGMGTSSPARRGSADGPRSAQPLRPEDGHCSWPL

On to “CT-011: humanized IgGl monoclonal antibody against PD-I”, for which, in the series with PD-1 (DLBCL, preliminary results), the subjects alive is 82% and the “subjects progression-free at the end of the follow-up period” value was 70%. Also, in the series with PD-1 (in vivo), the “activity of natural killer cells” value is listed as “augments”.

Turning to Medi 4736: anti-PD-LI antibody, the clinical activity entry with PD-L1 is reported as “durable clinical activity”.
